Reference: the RNAGym collection of RNA variant scans (doi:10.1093/molbev/msab373)

B1: Azoarcus group I ribozyme (parent)
chain: GUGCCUUGCGCCGGGAAACCACGCAAGGGAUGGUGUCAAAUUCGGCGAAACCUAAGCGCCCGCCCGGGCGUAUGGCAACGCCGAGCCAAGCUUCGGCGCCUGCGCCGAUGAAGGUGUAGAGACUAGACGGCACCCACCUAAGGCAAACGCUAUGGUGAAGGCAUAGUCCAGGGAGUGGCGAAAGUCACACAAACCGG

Variants of: B1
Test: reverse-splicing fitness (ratio to wild type); higher = more active; in vitro selection; Mg2+ level not given
Procedure, shortened: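 An in vitro group I ribozyme library with randomized positions was T7-transcribed and gel-purified. In triplicate, 10 pmol RNA in EPPS pH 7.5 was reacted with 50 pmoles of a 30-nt RNA substrate for 1 h at 37 °C across several added MgCl2 levels (1–48 mM), then stopped with EDTA. Products were reverse transcribed from a substrate-complementary primer, PCR-amplified and sequenced (HiSeq 4000). Fitness is a variant's read proportion after selection over that before, normalised to wild type.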

Variant | reverse-splicing fitness
A111C A120C C150A C169U | 0.0222
A111C A120C C150A C169G | 0.00716
A111C A120C A145U C150A C169G U176G | 0.00651
A111C A120C A145U C150A C169G U176C | 0.0146
A111C A120C A145U C150A C169G U176A | 0.0127
A111C A120C A145U C150U C169G U176A | 0.0128
A111C A120C A145U C150U C169G U176C | 0.0132
A111C A120C A145U C150U C169G U176G | 0.00667
A111C A120G A145G C150U C169A | 0.0989
A111C A120G A145G C150U C169G | 0.167
A111C A120G A145G C150U C169U | 0.139
A111C A120G A145C C150G C169A | 0.015
A111C A120G A145C C150G C169G | 0.0238
A111C A120G A145C C150G C169U | 0.0248
A111C A120C A145U | 0.589
A111C A120C A145G | 0.614
A111C A120G A145C C169A | 0.0989
A111C A120G A145C C169G | 0.201
A111C A120G A145C C169U | 0.146
A111C A120G A145C C150U C169G | 0.0492
A111C A120G A145C C150U C169U | 0.0398

Variant | reverse-splicing fitness
A111C A120G A145C C150U C169A | 0.0284
A111C A120G A145G C150U C169G U176C | 0.035
A111C A120G A145G C150U C169G U176A | 0.0243
A111C A120G A145G C150U C169G U176G | 0.00471
A111C A120C A145C C169U U176A | 0.0332
A111C A120C A145C C169U U176G | 0.006
A111C A120C A145C C169U U176C | 0.0413
A111C A120C C150G C169G U176G | 0.00564
A111C A120C C150G C169G U176A | 0.00796
A111C A120C C150G C169G U176C | 0.00683
A111C A120C C150A C169A U176C | 0.0141
A111C A120C C150A C169A U176A | 0.0162
A111C A120C C150A C169A U176G | 0.00693
A111C A120C C150U C169G | 0.00843
A111C A120C C150U C169U | 0.113
A111C A120C C150U C169A | 0.0123
A111C A120C A145U C169A U176C | 0.0102
A111C A120C A145U C169A U176A | 0.0135
A111C A120C A145U C169A U176G | 0.00762
A111C A120G A145G C150A U176G | 0.0068
A111C A120G A145G C150A U176C | 0.0252

Variant | reverse-splicing fitness
A111C A120G A145G C150A U176A | 0.0132
A111C A120C A145G C169G U176G | 0.00588
A111C A120C A145G C169G U176C | 0.0244
A111C A120C A145G C169G U176A | 0.0201
A111C A120C C150A U176C | 0.0495
A111C A120C C150A U176A | 0.0343
A111C A120C C150A U176G | 0.0118
A111C A120C A145U C150U U176C | 0.174
A111C A120C A145U C150U U176G | 0.0336
A111C A120C A145U C150U U176A | 0.146
A111C A120C C150G C169A U176G | 0.00561
A111C A120C C150G C169A U176C | 0.00966
A111C A120C C150G C169A U176A | 0.00884
A111C A120G A145G C150A C169A | 0.02
A111C A120G A145G C150A C169U | 0.0326
A111C A120G A145G C150A C169G | 0.0313
A111C A120C A145G C150G C169A U176C | 0.0116
A111C A120C A145G C150G C169A U176G | 0.00793
A111C A120C A145G C150G C169A U176A | 0.0133
A111C A120G A145C C169G U176A | 0.0348
A111C A120G A145C C169G U176C | 0.0399

Variant | reverse-splicing fitness
A111C A120G A145C C169G U176G | 0.00459
A111C A120G A145C C150A U176C | 0.0118
A111C A120G A145C C150A U176G | 0.00357
A111C A120G A145C C150A U176A | 0.0112
A111C A120G A145G C150U U176C | 0.04
A111C A120G A145G C150U U176G | 0.00709
A111C A120G A145G C150U U176A | 0.0273
A111C A120C C150U C169U U176A | 0.0275
A111C A120C C150U C169U U176G | 0.0066
A111C A120C C150U C169U U176C | 0.0327
A111C A120G A145C C150A C169U | 0.0139
A111C A120G A145C C150A C169G | 0.0149
A111C A120G A145C C150A C169A | 0.0103
A111C A120C A145U U176C | 0.215
A111C A120C A145U U176G | 0.0519
A111C A120C A145U U176A | 0.222
A111C A120C A145U C150G U176A | 0.0202
A111C A120C A145U C150G U176C | 0.034
A111C A120C A145U C150G U176G | 0.00607
A111C A120G A145U C150A C169G | 0.0221
A111C A120G A145U C150A C169A | 0.0145
